According to article PMC5656002 (ACS infectious diseases, 2016):
Where two headings read alike, the source gives them in different places.

Columns and labels:
[1] = target: CTX-M-14 beta-lactamase (Escherichia coli); settings: cited from earlier work
[2] = target: SME-1 beta-lactamase (Serratia marcescens) (UniProt P52682); settings: cited from earlier work
[3] = target: KPC-2 beta-lactamase (Klebsiella pneumoniae) (UniProt Q9F663); settings: cited from earlier work
[4] = target: T1, KPC-2 β-lactamase (purified) (UniProt Q9F663 30-293); assay: enzyme inhibition assay
[5] = target: T1, KPC-2 β-lactamase (purified); assay: enzyme inhibition assay; remark: listed apart in the source
[6] = target: T1, KPC-2 β-lactamase (purified); assay: cell-based or functional assay
[7] = target: T2, SHV-1 β-lactamase (UniProt P0AD64 22-286); assay: enzyme inhibition assay
T2 sequence (looked up): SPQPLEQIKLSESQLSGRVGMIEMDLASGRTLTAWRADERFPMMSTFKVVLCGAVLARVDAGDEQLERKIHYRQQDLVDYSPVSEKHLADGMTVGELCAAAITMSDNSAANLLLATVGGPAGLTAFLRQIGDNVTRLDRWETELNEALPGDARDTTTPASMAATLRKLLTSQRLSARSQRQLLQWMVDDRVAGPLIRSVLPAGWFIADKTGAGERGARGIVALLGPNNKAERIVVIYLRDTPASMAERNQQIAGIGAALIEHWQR

[8] = target: T3, TEM-1 β-lactamase (purified) (UniProt P62593 24-286); assay: enzyme inhibition assay
[9] = target: CTX-M-14 β-lactamase (UniProt Q9L5C7 1-291); assay: enzyme inhibition assay
[10] = target: T4, SME-1 β-lactamase (UniProt P52682 28-294); assay: enzyme inhibition assay
T4 sequence: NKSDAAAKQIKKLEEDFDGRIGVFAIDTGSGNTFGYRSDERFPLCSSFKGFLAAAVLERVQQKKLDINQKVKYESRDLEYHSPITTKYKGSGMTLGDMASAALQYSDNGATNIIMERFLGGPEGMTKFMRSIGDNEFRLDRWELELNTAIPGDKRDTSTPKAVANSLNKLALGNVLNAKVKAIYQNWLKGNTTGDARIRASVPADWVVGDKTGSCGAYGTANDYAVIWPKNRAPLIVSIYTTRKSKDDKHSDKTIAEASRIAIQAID

[11] = target: T1, KPC-2 β-lactamase (purified); assay: cell-based or functional assay; remark: listed apart in the source
[12] = target: T1, KPC-2 β-lactamase (purified); assay: enzyme inhibition assay; remark: listed apart in the source
[13] = target: T1, KPC-2 β-lactamase (purified); assay: activity-based association and dissociation kinetics
[14] = target: T3, TEM-1 β-lactamase (purified); assay: enzyme inhibition assay; remark: listed apart in the source
[15] = target: T3, TEM-1 β-lactamase (purified); assay: enzyme inhibition assay; remark: listed apart in the source

| Molecule | Ki [4] [nM] | Ki [5] [nM] | ampicillin MIC of E. coli TP142 (chromosomal blaKPC-2) carrying the BLIP plasmid [6] [µg/mL] | ampicillin MIC of E. coli TP142 (chromosomal blaKPC-2) carrying the BLIP plasmid [11] [µg/mL] | Ki [12] [nM] | Kd [13] [nM] | koff [13] [s⁻¹] | kon [13] [M⁻¹ s⁻¹] | Ki [14] [nM] | Ki [15] [nM] | other results |
| --- | --- | --- | --- | --- | --- | --- | --- | --- | --- | --- | --- |
| BLIP (from UniProt P35804) |  |  |  |  |  |  |  |  |  |  | Ki [1]: 800 nM; Ki [2]: 2.4 nM; Ki [3]: 0.082 nM |
| β-lactamase inhibitory protein (BLIP), wild type (natural protein, Streptomyces clavuligerus, UniProt P35804 37-201, looked up) AGVMTGAKFTQIQFGMTRQQVLDIAGAENCETGGSFGDSIHCRGHAAGDYYAYATFGFTSAAADAKVDSKSQEKLLAPSAPTLTLAKFNQVTVGMTRAQVLATVGQGSCTTWSEYYPAYPSTAGVTLSLSCFDVDGYSSTGFYRGSAHLWFTDGVLQGKRQWDLV | 1.2 ± 0.4 | 0.2 ± 0.2 | 1 |  |  |  |  |  |  |  |  |
| BLIP K74T:W112D (natural protein) AGVMTGAKFTQIQFGMTRQQVLDIAGAENCETGGSFGDSIHCRGHAAGDYYAYATFGFTSAAADAKVDSKSQETLLAPSAPTLTLAKFNQVTVGMTRAQVLATVGQGSCTTDSEYYPAYPSTAGVTLSLSCFDVDGYSSTGFYRGSAHLWFTDGVLQGKRQWDLV |  |  |  | ≤ 3 | 0.4 ± 0.2 | 0.13 | 3e-05 | 200000 |  |  | Ki [7]: > 10 µM; Ki [8]: > 10 µM; Ki [9]: > 10 µM; Ki [10]: 450 nM |
| BLIP K74T:R160G (natural protein) AGVMTGAKFTQIQFGMTRQQVLDIAGAENCETGGSFGDSIHCRGHAAGDYYAYATFGFTSAAADAKVDSKSQETLLAPSAPTLTLAKFNQVTVGMTRAQVLATVGQGSCTTWSEYYPAYPSTAGVTLSLSCFDVDGYSSTGFYRGSAHLWFTDGVLQGKGQWDLV |  |  |  | ≤ 3 | 150 ± 57 |  |  |  |  |  |  |
| BLIP K74T (natural protein) AGVMTGAKFTQIQFGMTRQQVLDIAGAENCETGGSFGDSIHCRGHAAGDYYAYATFGFTSAAADAKVDSKSQETLLAPSAPTLTLAKFNQVTVGMTRAQVLATVGQGSCTTWSEYYPAYPSTAGVTLSLSCFDVDGYSSTGFYRGSAHLWFTDGVLQGKRQWDLV | 1.8 ± 2.8 | 1.5 ± 1 | 1.5 |  |  |  |  |  | 110 ± 23 | 151 ± 97 |  |
| BLIP E73K:R160G (natural protein) AGVMTGAKFTQIQFGMTRQQVLDIAGAENCETGGSFGDSIHCRGHAAGDYYAYATFGFTSAAADAKVDSKSQKKLLAPSAPTLTLAKFNQVTVGMTRAQVLATVGQGSCTTWSEYYPAYPSTAGVTLSLSCFDVDGYSSTGFYRGSAHLWFTDGVLQGKGQWDLV |  |  |  | ≤ 3 | 128 ± 30 | 60 | 0.03 | 500000 |  |  |  |
| BLIP R160G (natural protein) AGVMTGAKFTQIQFGMTRQQVLDIAGAENCETGGSFGDSIHCRGHAAGDYYAYATFGFTSAAADAKVDSKSQEKLLAPSAPTLTLAKFNQVTVGMTRAQVLATVGQGSCTTWSEYYPAYPSTAGVTLSLSCFDVDGYSSTGFYRGSAHLWFTDGVLQGKGQWDLV | 0.9 ± 0.4 | 0.4 ± 0.3 | 0.75 |  |  |  |  |  | 236 ± 115 | 236 ± 85 |  |
| BLIP E73K (natural protein) AGVMTGAKFTQIQFGMTRQQVLDIAGAENCETGGSFGDSIHCRGHAAGDYYAYATFGFTSAAADAKVDSKSQKKLLAPSAPTLTLAKFNQVTVGMTRAQVLATVGQGSCTTWSEYYPAYPSTAGVTLSLSCFDVDGYSSTGFYRGSAHLWFTDGVLQGKRQWDLV | 13.7 ± 6.6 | 8.9 ± 6.3 | 1.5 |  |  |  |  |  | 835 ± 172 | 2530 ± 578 |  |
| BLIP W112D (natural protein) AGVMTGAKFTQIQFGMTRQQVLDIAGAENCETGGSFGDSIHCRGHAAGDYYAYATFGFTSAAADAKVDSKSQEKLLAPSAPTLTLAKFNQVTVGMTRAQVLATVGQGSCTTDSEYYPAYPSTAGVTLSLSCFDVDGYSSTGFYRGSAHLWFTDGVLQGKRQWDLV | 1080 ± 551 | 587 ± 63 | 1 |  |  |  |  |  | 1190 ± 701 | 1270 ± 212 |  |
| BLIP E73K:K74T (natural protein) AGVMTGAKFTQIQFGMTRQQVLDIAGAENCETGGSFGDSIHCRGHAAGDYYAYATFGFTSAAADAKVDSKSQKTLLAPSAPTLTLAKFNQVTVGMTRAQVLATVGQGSCTTWSEYYPAYPSTAGVTLSLSCFDVDGYSSTGFYRGSAHLWFTDGVLQGKRQWDLV |  |  |  | ≤ 3 | 1.6 ± 0.8 | 1.3 | 0.0004 | 300000 |  |  |  |
